Data reported in PMC8530329 (PLoS Pathogens, 2021).

B1: RBD-chAb-25 (antibody, V domains shown)
VH: EVQLEESGGGLVKPGGSLKLSCAASGFTFSSYTMSWVRQSPEKRLEWVAEISSGGTYTNYPDTATGRFTISRDNAKNTLYLEMSSLRSEDTAMYYCANFGNYEEIAYWGQGTLVTVSA
VL: QIVLTQSPAIMSVSLGERVTMTCTASSSVSSSYLHWYQQKPGSSPKLWIYSTSNLASGVPARFSGSGSGTSYSLTISSMEAEDAATYYCHQYHRSPYTFGGGTKLEIK
notes: also called S-chAb-25 (in complex with S); source: Expi-293 cells, co-transfected, purified (protein G column)
B2: RBD-chAb-45 (antibody, V domains shown)
VH: EVQLQQSGPELVKPGASVKISCKTSGYTFTEYTIYWVKQSLGKSLEWIGGNNPNNDDTTYKQFFKGKATLTVDKSSSTAYMELRSLTSEDSAVYYCARDGYPYYYALDFWGQGTSVTVSS
VL: DIVMTQSQKFMSTSVGDRVSVTCKSSQNVGTNVAWYQQKPGQSPKALIYSASYRYSGVPDHFTGSGSGTDFTLTISNVQSADLAEYFCQQYNNYPWTFGGGTKLEIK
notes: also called S-chAb-45 (in complex with S); source: Expi-293 cells, co-transfected, purified (protein G column)

Target: T1, SARS-CoV-2 S_(fm2P) (SARS-CoV-2, original (reference) …, 682RRAR685 → 682GSAG685 | 986KV987 → 986PP987)
T1 construct: also called ectodomain of the SARS-CoV-2 S protein; SARS-CoV-2 S protein
Assay: cryo-EM structure
Conditions: both partners purified

Binder	stoichiometry N
B1	3 chAb (Fab) per S trimer
B2	3 chAb (Fab) per S trimer
